“And” between values parts separate entries of the source, which are not always exact repeats. Equal entries are not always repeated. Each block holds one binder with its values, some of them ahead of it.
Columns and labels:
[1] = biological target: T1, membrane-bound full-length human CD89 on HEK293F cells (human, UniProt P24071 22-287); assay: FACS HEK293F-huCD89
T1 construct: 2 or transient transfectants; also called membrane human CD89; human FcaRI
Description: After extensive washing in PBS/BSA/NaN₃, cells were subsequently incubated with 1:200 diluted PE-conjugated goat anti-human IgG Fcy-specific antibodies (Jackson ImmunoResearch) for 30 minutes at 4° C. After extensive washing in PBS/BSA/NaN₃, cells were fixed in 2% formaldehyde in PBS/BSA/NaN₃ for 30 minutes at 4° C.

[2] = biological target: T2, recombinant C-terminal polyhistidine-tagged human (extracellular) CD89 (Sino Biological) (human, UniProt P24071 22-227); assay: ELISA, coated rhuCD89
T2 construct: extracellular domain; bought protein; also called rhuCD89; soluble monomeric rhuCD89
Description: After extensive washing with PBS/0.05% Tween 20, plates were blocked with PBS/0.05% Tween 20/1% BSA (Roche) for 1 hour at RT. Subsequently, plates were incubated with 50 µL titrated (in block buffer) purified mouse anti-human CD89 antibody/well for 1 hour at RT. […] After extensive washing in PBS/0.05% Tween 20, binding of antibodies on rhuCD89 was determined with 1:5,000 diluted horseradish peroxidase (HRP)-conjugated goat anti-mouse IgG Fcy-specific antibodies (Jackson ImmunoResearch) for 1 hour at RT, followed by a ready-to-use solution of TMB substrate (Invitrogen) for colorimetric detection.
After extensive washing with PBS/0.05% Tween 20, plates were blocked with PBS/0.05% Tween 20/1% BSA (Roche) for 1 hour at RT. […] After extensive washing in PBS/0.05% Tween 20, binding of antibodies on rhuCD89 was determined with 1:5,000 diluted horseradish peroxidase (HRP)-conjugated goat anti-human IgG Fcy-specific antibodies (Jackson ImmunoResearch) for 1 hour at RT, followed by a ready-to-use solution of TMB substrate (Invitrogen) for colorimetric detection.

[3] = biological target: T1, membrane-bound full-length human CD89 …; assay: FACS, antibody before secretory IgA on HEK293F-huCD89; IgA detected
[4] = biological target: T1, membrane-bound full-length human CD89 …; assay: FACS, antibody before non-aggregated serum IgA on HEK293F-huCD89; IgA detected
[5] = biological target: T1, membrane-bound full-length human CD89 …; assay: FACS, antibody before heat-aggregated serum IgA on HEK293F-huCD89; IgA detected
[6] = biological target: T1, membrane-bound full-length human CD89 …; assay: FACS HEK293F-huCD89, purified Ab
Description: After extensive washing in PBS/BSA/NaN₃, cells were subsequently incubated with 1:200 diluted PE-conjugated goat anti-human IgG Fcγ-specific antibodies (Jackson ImmunoResearch) for 30 minutes at 4° C. After extensive washing in PBS/BSA/NaN₃, cells were fixed in 4% formaldehyde in PBS/BSA/NaN₃ for 30 minutes at 4° C.

[7] = biological target: T2, recombinant C-terminal …; assay: ELISA, coated rhuCD89, purified Ab
Description: After extensive washing with PBS/0.05% Tween 20, plates were blocked with PBS/0.05% Tween 20/1% BSA (Roche) for 1 hour at RT. […] After extensive washing in PBS/0.05% Tween 20, binding of antibodies on rhuCD89 was determined with 1:5,000 diluted horseradish peroxidase (HRP)-conjugated goat anti-human IgG Fcγ-specific antibodies (Jackson ImmunoResearch) for 1 hour at RT, followed by a ready-to-use solution of TMB substrate (Invitrogen) for colorimetric detection. After adding 1 M HCL, binding (optical density) of antibodies on rhuCD89 was measured at wavelength of 450 nm (reference wavelength of 655 nm) using a microplate reader (Synergy HTX; BioTek).

[8] = biological target: T1, membrane-bound full-length human CD89 …; assay: FACS HEK293F-huCD89; inhibition of serum human IgA binding
Description: (§1) After extensive washing in PBS/BSA/NaN₃, 1:200 diluted PE-conjugated streptavidin (Jackson ImmunoResearch) was added, and incubated for 30 minutes at 4° C. After extensive washing in PBS/BSA/NaN₃, cells were fixed in 4% formaldehyde in PBS/BSA/NaN₃ for 30 minutes at 4° C.

[9] = biological target: T1, membrane-bound full-length human CD89 …; assay: FACS HEK293F-huCD89; inhibition of secretory human IgA binding
Description: as §1

[10] = biological target: T2, recombinant C-terminal …; assay: BLI (Octet RED96), biotinylated Ab on streptavidin tips, rhuCD89 analyte, 1:1 model
Description: Equilibrium dissociation constants (KD) were determined using a 1:1 Langmuir binding model in Octet® RED96 software (ForteBio).

[11] = biological target: T2, recombinant C-terminal …; assay: ELISA on plate-coated rhuCD89; titrated supernatant; HRP goat anti-human IgG Fc detection, OD 450 nm [VL3]
[12] = biological target: T2, recombinant C-terminal …; assay: ELISA on plate-coated rhuCD89; titrated supernatant; HRP goat anti-human IgG Fc detection, OD 450 nm [VL4]

B3: CD89/IgA blocking chimeric mouse/human IgG4/kappa anti-human CD89 antibody 10E7 (antibody)
heavy: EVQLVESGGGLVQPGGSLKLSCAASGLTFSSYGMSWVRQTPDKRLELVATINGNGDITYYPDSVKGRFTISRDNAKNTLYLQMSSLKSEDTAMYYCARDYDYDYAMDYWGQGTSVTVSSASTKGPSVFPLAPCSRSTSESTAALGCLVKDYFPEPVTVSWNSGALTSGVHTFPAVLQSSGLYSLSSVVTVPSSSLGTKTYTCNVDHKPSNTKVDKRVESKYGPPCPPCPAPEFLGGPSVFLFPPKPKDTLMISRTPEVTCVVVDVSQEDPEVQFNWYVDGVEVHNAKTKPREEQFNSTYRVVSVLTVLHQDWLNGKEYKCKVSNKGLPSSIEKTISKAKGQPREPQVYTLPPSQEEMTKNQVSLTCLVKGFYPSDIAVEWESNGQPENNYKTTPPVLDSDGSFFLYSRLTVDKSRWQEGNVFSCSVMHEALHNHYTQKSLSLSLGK
light: DIQMTQSTSSLSASLGDSVTISCRASQDIINYLNWYQQKPDGTVKLLIYYTSRLHSGVPSRFSGSGSGTEYSLTVSNLEKEDIATYFCQQGKTLPYTFGGGTKLEIKRTVAAPSVFIFPPSDEQLKSGTASVVCLLNNFYPREAKVQWKVDNALQSGNSQESVTEQDSKDSTYSLSSTLTLSKADYEKHKVYACEVTHQGLSSPVTKSFNRGEC
notes: stabilized (S239P) human IgG4; biotinylated in the Octet assay; also called chimeric 10E7; chimer IgG4/k 10E7
EC50 [1]: 1.25 µg/mL and ~1 µg/mL | EC50 [2]: 0.016 µg/mL and ~0.02 µg/mL | EC50 [6]: ~1.3 µg/mL | EC50 [7]: ~0.01 µg/mL | IC50 [8]: ~1.6 µg/mL | IC50 [9]: ~1 µg/mL | Kd [10]: 1.28 nM | koff [10]: 0.00106 s⁻¹ | kon [10]: 832000 M⁻¹ s⁻¹

B5: CD89/IgA blocking chimeric mouse/human IgG4/kappa anti-human CD89 antibody 16D6 (antibody)
heavy: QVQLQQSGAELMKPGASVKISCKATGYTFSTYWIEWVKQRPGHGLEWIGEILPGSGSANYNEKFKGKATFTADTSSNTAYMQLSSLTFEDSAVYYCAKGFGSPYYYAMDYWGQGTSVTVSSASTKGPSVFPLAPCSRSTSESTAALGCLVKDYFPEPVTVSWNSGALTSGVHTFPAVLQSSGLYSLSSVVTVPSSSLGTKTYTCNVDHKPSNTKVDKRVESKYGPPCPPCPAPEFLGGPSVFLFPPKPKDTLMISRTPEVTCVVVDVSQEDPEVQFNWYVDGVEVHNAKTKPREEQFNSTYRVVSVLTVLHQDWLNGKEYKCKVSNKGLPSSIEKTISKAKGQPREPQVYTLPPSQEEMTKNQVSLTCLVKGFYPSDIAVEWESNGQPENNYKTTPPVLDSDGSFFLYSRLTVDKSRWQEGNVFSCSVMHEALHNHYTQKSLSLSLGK
light: EIVLTQSPALMAASPGEKVTITCSVSSSISSSNLHWYQQKSETSPKPWIYGTSKLASGVPVRFSGSGSGTSYSLTISNMEAEDAATYYCQQWSSFPLTFGGGTKLEIKRTVAAPSVFIFPPSDEQLKSGTASVVCLLNNFYPREAKVQWKVDNALQSGNSQESVTEQDSKDSTYSLSSTLTLSKADYEKHKVYACEVTHQGLSSPVTKSFNRGEC
notes: stabilized (S239P) human IgG4; also called chimeric 16D6
EC50 [1]: 1.79 µg/mL | EC50 [2]: 0.108 µg/mL

B6: humanized IgG4/kappa anti-human CD89 monoclonal antibody 10E7 version VH2VL3 (antibody)
heavy: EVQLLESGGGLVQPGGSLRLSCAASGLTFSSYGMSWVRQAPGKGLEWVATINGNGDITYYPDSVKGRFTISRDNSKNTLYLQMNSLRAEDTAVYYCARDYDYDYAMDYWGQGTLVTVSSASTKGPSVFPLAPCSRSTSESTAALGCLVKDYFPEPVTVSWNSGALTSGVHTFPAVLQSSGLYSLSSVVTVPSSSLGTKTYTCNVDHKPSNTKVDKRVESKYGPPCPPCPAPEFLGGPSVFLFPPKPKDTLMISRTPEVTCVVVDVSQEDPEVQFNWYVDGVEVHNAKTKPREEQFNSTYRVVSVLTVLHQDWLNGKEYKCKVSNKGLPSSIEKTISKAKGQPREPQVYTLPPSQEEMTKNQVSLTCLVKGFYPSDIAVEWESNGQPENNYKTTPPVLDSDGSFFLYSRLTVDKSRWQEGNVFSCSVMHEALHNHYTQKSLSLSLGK
light: DIQMTQSPSSLSASVGDRVTITCRASQDIINYLNWYQQKPGKAVKLLIYYTSRLHSGVPSRFSGSGSGTDYTLTISSLQPEDFATYYCQQGKTLPYTFGQGTKLEIKRTVAAPSVFIFPPSDEQLKSGTASVVCLLNNFYPREAKVQWKVDNALQSGNSQESVTEQDSKDSTYSLSSTLTLSKADYEKHKVYACEVTHQGLSSPVTKSFNRGEC
notes: tested as supernatant; signal peptide end derived as for m17
EC50 (read off the curve) [11]: ~0.04 µg/mL

B7: humanized IgG4/kappa anti-human CD89 monoclonal antibody 10E7 version VH1VL4 (antibody)
heavy: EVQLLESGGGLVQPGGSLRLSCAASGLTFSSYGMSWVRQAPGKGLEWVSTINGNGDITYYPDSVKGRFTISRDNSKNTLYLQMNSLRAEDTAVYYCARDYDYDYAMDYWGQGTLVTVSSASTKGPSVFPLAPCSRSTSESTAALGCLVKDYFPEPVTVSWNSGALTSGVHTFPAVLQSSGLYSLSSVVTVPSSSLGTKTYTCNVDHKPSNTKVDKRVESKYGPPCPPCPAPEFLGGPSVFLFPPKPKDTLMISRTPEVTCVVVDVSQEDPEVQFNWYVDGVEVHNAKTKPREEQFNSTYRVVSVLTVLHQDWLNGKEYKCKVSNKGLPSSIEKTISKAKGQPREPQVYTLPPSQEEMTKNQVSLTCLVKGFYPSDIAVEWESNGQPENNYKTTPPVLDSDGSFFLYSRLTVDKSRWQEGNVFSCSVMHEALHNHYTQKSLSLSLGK
light: DIQMTQSPSSLSASVGDRVTITCRASQDIINYLNWYQQKPGKTVKLLIYYTSRLHSGVPSRFSGSGSGTDYTLTISSLQPEDFATYFCQQGKTLPYTFGQGTKLEIKRTVAAPSVFIFPPSDEQLKSGTASVVCLLNNFYPREAKVQWKVDNALQSGNSQESVTEQDSKDSTYSLSSTLTLSKADYEKHKVYACEVTHQGLSSPVTKSFNRGEC
notes: as for B6
EC50 (read off the curve) [12]: ~0.03 µg/mL

B9: humanized IgG4/kappa anti-human CD89 monoclonal antibody 10E7 version VH2VL4 (antibody)
heavy: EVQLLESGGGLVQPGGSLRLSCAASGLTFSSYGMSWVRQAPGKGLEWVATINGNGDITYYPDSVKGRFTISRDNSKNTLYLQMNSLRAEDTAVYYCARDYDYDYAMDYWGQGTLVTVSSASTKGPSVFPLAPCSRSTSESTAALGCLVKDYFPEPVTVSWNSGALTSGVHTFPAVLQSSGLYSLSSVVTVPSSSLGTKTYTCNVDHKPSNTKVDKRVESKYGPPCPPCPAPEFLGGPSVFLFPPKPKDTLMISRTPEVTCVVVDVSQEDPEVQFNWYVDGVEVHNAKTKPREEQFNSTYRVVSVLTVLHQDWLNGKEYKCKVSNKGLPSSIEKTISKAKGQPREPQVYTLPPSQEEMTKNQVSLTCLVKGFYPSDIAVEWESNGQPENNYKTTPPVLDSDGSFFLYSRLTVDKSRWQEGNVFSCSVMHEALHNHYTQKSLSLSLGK
light: DIQMTQSPSSLSASVGDRVTITCRASQDIINYLNWYQQKPGKTVKLLIYYTSRLHSGVPSRFSGSGSGTDYTLTISSLQPEDFATYFCQQGKTLPYTFGQGTKLEIKRTVAAPSVFIFPPSDEQLKSGTASVVCLLNNFYPREAKVQWKVDNALQSGNSQESVTEQDSKDSTYSLSSTLTLSKADYEKHKVYACEVTHQGLSSPVTKSFNRGEC
notes: as for B6
EC50 (read off the curve) [12]: ~0.03 µg/mL

Further lines, results first:

EC50 [1]: 1.32 µg/mL | EC50 [2]: 0.031 µg/mL | IC50 (read off the curve) [3]: ~1 µg/mL | IC50 (read off the curve) [4]: ~1 µg/mL | IC50 (read off the curve) [5]: ~1 µg/mL
B1: CD89/IgA blocking chimeric mouse/human IgG4/kappa anti-human CD89 antibody 8F3 (antibody)
heavy: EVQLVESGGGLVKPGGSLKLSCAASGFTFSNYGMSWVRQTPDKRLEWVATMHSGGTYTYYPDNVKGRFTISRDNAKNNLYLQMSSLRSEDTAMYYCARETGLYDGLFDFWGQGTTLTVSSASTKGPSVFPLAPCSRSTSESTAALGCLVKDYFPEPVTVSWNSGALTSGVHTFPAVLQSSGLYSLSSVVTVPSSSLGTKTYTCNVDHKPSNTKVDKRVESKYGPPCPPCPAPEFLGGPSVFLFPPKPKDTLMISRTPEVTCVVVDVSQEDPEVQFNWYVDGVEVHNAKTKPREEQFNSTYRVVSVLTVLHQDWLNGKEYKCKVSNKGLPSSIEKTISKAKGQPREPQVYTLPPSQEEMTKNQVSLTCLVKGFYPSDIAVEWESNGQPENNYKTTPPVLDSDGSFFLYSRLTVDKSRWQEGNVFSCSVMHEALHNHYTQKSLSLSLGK
light: DVQITQSPSYLAASPGETITINCRASKTISKYLAWYQEKPGKTNMLLIYSGSTLQSGVPSRFSGSGSGTDFTLTISSLEPEDLAMYYCQQHDEYPWTFGGGTKLEIKRTVAAPSVFIFPPSDEQLKSGTASVVCLLNNFYPREAKVQWKVDNALQSGNSQESVTEQDSKDSTYSLSSTLTLSKADYEKHKVYACEVTHQGLSSPVTKSFNRGEC
notes: stabilized (S239P) human IgG4; also called chimeric 8F3

IC50 (read off the curve) [3]: ~1 µg/mL | IC50 (read off the curve) [4]: ~0.9 µg/mL | IC50 (read off the curve) [5]: ~0.8 µg/mL
B2: CD89/IgA blocking chimeric mouse/human IgG4/kappa anti-human CD89 antibody 30C7 (antibody)
heavy: not shown
light: DIVMSQSPSSLAVSAGEKVTMSCKSSQSLLNSRTRKNYLAWYQQKPGQSPKLLIYWASTRESGVPDRFTGSGSGTDFTLTISSVQAEDLAVYYCKQSYNLMYTFGGGTKLEIKRTVAAPSVFIFPPSDEQLKSGTASVVCLLNNFYPREAKVQWKVDNALQSGNSQESVTEQDSKDSTYSLSSTLTLSKADYEKHKVYACEVTHQGLSSPVTKSFNRGEC
notes: stabilized (S239P) human IgG4; also called chimeric 30C7

EC50 [1]: 0.296 µg/mL | EC50 [2]: 0.009 µg/mL
B4: CD89/IgA blocking chimeric mouse/human IgG4/kappa anti-human CD89 antibody 20B4 (antibody)
heavy: not shown
light: DILMTQSPSSMSVSLGDTVSITCHASQDISRNIGWLQQKPGKSFKGLIYHGTNLEDGVPSRFSGSGSGADYSLTISSLESEDFADYYCVQYAQFPRTFGGGTKLEIKRTVAAPSVFIFPPSDEQLKSGTASVVCLLNNFYPREAKVQWKVDNALQSGNSQESVTEQDSKDSTYSLSSTLTLSKADYEKHKVYACEVTHQGLSSPVTKSFNRGEC
notes: stabilized (S239P) human IgG4; also called chimeric 20B4

EC50 [6]: ~0.6 µg/mL | EC50 [7]: ~0.01 µg/mL | IC50 [8]: ~0.9 µg/mL | IC50 [9]: ~0.6 µg/mL | Kd [10]: 0.82 nM | koff [10]: 0.000941 s⁻¹ | kon [10]: 1.15e+06 M⁻¹ s⁻¹
B8: 'CDR2 deamidation-repaired' humanized IgG4/kappa anti-human CD89 monoclonal antibody 10E7 version VH3SQVL3 (antibody)
heavy: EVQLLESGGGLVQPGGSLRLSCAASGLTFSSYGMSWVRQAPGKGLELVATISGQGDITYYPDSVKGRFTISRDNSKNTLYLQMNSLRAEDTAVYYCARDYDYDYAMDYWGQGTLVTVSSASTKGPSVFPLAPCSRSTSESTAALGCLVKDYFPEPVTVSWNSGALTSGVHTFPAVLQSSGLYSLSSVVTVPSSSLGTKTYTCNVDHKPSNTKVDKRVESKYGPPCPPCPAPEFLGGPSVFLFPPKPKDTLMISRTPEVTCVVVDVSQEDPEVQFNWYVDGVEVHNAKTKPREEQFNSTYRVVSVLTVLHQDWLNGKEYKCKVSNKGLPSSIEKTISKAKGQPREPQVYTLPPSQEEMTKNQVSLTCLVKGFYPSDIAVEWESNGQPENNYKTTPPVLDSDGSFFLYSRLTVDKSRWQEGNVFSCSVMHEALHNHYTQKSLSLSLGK
light: DIQMTQSPSSLSASVGDRVTITCRASQDIINYLNWYQQKPGKAVKLLIYYTSRLHSGVPSRFSGSGSGTDYTLTISSLQPEDFATYYCQQGKTLPYTFGQGTKLEIKRTVAAPSVFIFPPSDEQLKSGTASVVCLLNNFYPREAKVQWKVDNALQSGNSQESVTEQDSKDSTYSLSSTLTLSKADYEKHKVYACEVTHQGLSSPVTKSFNRGEC
notes: Biotinylated in the Octet assay; also called Humanized VH3SQVL3

EC50 [6]: ~0.6 µg/mL | EC50 [7]: ~0.01 µg/mL | IC50 [8]: ~0.9 µg/mL | IC50 [9]: ~0.6 µg/mL | Kd [10]: 0.92 nM | koff [10]: 0.000974 s⁻¹ | kon [10]: 1.06e+06 M⁻¹ s⁻¹
B10: 'CDR2 deamidation-repaired' humanized IgG4/kappa anti-human CD89 monoclonal antibody 10E7 version VH3STVL3 (antibody)
heavy: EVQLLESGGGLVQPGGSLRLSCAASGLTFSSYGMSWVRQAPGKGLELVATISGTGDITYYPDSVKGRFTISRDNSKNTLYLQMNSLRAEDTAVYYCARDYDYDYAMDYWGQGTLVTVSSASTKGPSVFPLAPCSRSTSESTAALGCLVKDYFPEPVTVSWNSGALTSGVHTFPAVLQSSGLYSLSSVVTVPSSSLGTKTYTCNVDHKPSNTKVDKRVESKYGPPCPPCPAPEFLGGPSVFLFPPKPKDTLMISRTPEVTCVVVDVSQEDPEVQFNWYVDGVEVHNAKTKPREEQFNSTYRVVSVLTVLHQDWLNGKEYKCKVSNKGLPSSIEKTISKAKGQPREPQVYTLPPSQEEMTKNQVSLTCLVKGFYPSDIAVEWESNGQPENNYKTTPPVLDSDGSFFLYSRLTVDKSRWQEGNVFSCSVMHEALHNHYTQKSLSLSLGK
light: DIQMTQSPSSLSASVGDRVTITCRASQDIINYLNWYQQKPGKAVKLLIYYTSRLHSGVPSRFSGSGSGTDYTLTISSLQPEDFATYYCQQGKTLPYTFGQGTKLEIKRTVAAPSVFIFPPSDEQLKSGTASVVCLLNNFYPREAKVQWKVDNALQSGNSQESVTEQDSKDSTYSLSSTLTLSKADYEKHKVYACEVTHQGLSSPVTKSFNRGEC
notes: Biotinylated in the Octet assay; also called Humanized VH3STVL3

EC50 (read off the curve) [11]: ~0.03 µg/mL
B11: humanized IgG4/kappa anti-human CD89 monoclonal antibody 10E7 version VH1VL3 (antibody)
heavy: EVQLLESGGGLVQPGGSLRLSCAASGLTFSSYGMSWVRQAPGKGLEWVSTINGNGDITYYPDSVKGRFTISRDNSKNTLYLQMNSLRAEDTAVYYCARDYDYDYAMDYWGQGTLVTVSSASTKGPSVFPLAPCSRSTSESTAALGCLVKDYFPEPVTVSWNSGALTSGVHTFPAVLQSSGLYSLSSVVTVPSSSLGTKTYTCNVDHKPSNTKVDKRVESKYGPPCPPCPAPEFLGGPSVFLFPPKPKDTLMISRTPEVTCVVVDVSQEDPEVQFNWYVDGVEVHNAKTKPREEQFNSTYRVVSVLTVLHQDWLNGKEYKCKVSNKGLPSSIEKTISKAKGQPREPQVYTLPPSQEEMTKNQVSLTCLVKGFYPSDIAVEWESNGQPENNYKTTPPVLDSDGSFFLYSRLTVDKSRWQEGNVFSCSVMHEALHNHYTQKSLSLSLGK
light: DIQMTQSPSSLSASVGDRVTITCRASQDIINYLNWYQQKPGKAVKLLIYYTSRLHSGVPSRFSGSGSGTDYTLTISSLQPEDFATYYCQQGKTLPYTFGQGTKLEIKRTVAAPSVFIFPPSDEQLKSGTASVVCLLNNFYPREAKVQWKVDNALQSGNSQESVTEQDSKDSTYSLSSTLTLSKADYEKHKVYACEVTHQGLSSPVTKSFNRGEC
notes: as for B6
